What was measured:
[1] = target: High Capacity NeutrAvidin Agarose Resin (UniProt P02701); assay: pull-down on NeutrAvidin Agarose resin, 1 uM protein, 2 hrs at 4 C; bound fraction from A280 of flow-through and wash
[2] = target: High Capacity NeutrAvidin Agarose Resin (UniProt P02701); assay: pull-down on NeutrAvidin Agarose resin, SDS-PAGE of the fractions

Sequence of UniProt P02701 (P02701 25-152): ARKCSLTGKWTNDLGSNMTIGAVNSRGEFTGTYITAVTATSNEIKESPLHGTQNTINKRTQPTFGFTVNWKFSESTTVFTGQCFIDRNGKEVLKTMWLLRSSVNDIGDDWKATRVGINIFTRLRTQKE

binding efficiency (percent of protein bound to resin) [1] [%] | percent unbound [2] [%] | Substance
65 | 35 | IPL biotin-labeled mRuby3
10 | – | unlabeled mRuby3

Reference: patent US20220056072A1
